The results in this text go back to patent US6881547B1, “Methods and reagents for treating autoimmune disorders” (priority 2001, dated 2005).

The target in data set [1] is T1, PKA (Bos taurus, UniProt P00517). The data set can be described thus: PKA phosphorylation of native GP antigen (α3(IV)NC1 monomer or hexamer) in the presence of C-terminal peptides. To be noted: for induction of GP antigen phosphorylation by PKA (22 kDa conformer of α3(IV)NC1): 0.1 μM ATP, 10 nmol peptide. It counts as biochemical. As to the method: FIG. 16. Phosphorylation of GP alternative splicing products by PKA. In left panel, equimolecular amounts of rGP (lanes 1), rGPΔV (lanes 2), rGPΔIII (lanes 3) or rGPΔIII/IV/V (lanes 4), equivalent to 500 ng of the GP were phosphorylated at the indicated ATP concentrations. One-fifth of the total phosphorylation reaction mixture was separated by gel electrophoresis and transferred to PVDF, autoradiographed (shown) and the proteins blotted with M3/1, a specific monoclonal antibody recognizing all four species (shown) or using antibodies specific for each individual C-terminal region (not shown). […] Right panel: purified α3(IV)NC1 domain or hexamer was phosphorylated with PKA and 0.1 μM ATP in the absence (lanes 1) or in the presence of 10 nmol of peptides representing the C-terminal region of either GPΔIII (lanes 2) or GPΔIII/IV/V (lanes 3). Where indicated the phosphorylation mixtures of purified α3(IV)NC1 domain were V8 digested and immunoprecipitated with antibodies specific for the N terminus of the human α3(IV)NC1 domain (3). Bars and numbers indicate the position and sizes (kDa) of the molecular weight markers.
(§1) Phosphorylation studies. Phosphorylation studies were essentially done as described above (see also 3 and 11). In some experiments, the substrates were in-blot renatured and then, phosphorylated for 30 min at room temperature by overlaying 100 μl of phosphorylation buffer containing 0.5 μg of RGPBP. Digestion with V8 endopeptidase and immunoprecipitation were performed as described in (3).
Regulation of the phosphorylation of the human GP antigen by alternative splicing. We produced bacterial recombinant proteins representing the primary antigen (GP) or the individual alternative products GPΔV (SEQ ID NO:46), GPΔIII (SEQ ID NO:48) and GPΔIII/IV/V (SEQ ID NO:50), and we tested their ability to be phosphorylated by PKA (FIG. 16, left panel). […] Accordingly, the differences observed in phosphorylation for the full polypeptides also existed among the individual N-terminal regions, as determined after specific V8 digestion and immunoprecipitation (not shown). […]

Data set [2] has as its target T1, PKA. Nature of the data set: in vitro phosphorylation of the synthetic peptides by PKA. It counts as biochemical. To be noted: not shown.
Data set [3] deals with T2, GPBP (Homo sapiens, UniProt Q9Y5P4).
T2 construct: made in house; host or cells: Pichia pastoris GS115
T2 sequence (Q9Y5P4 1-624): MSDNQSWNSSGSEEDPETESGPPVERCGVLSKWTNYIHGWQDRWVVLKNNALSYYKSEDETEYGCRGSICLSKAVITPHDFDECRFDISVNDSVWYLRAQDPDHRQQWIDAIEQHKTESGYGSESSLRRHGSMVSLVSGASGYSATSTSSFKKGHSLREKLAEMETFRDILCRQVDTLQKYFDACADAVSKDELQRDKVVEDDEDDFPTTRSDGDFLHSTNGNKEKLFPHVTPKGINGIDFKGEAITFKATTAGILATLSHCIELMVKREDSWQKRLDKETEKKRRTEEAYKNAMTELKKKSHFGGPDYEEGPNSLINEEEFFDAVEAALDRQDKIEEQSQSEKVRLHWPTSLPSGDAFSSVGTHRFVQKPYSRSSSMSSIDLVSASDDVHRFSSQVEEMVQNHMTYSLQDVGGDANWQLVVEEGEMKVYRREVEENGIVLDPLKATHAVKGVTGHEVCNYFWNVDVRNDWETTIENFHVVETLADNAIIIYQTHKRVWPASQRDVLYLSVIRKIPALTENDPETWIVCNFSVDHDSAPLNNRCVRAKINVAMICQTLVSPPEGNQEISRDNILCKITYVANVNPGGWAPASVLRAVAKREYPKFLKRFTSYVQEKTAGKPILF
Nature of the data set: in vitro GPBP autophosphorylation in the presence of GPΔIII-derived peptide. The following applies: about 200 ng rGPBP, 150 μM ATP, 5 nmol peptide. It counts as biochemical. The procedure:
FIG. 20. Regulation of the GPBP by the C terminal region of GPΔIII. About 200 ng of RGPBP were in vitro phosphorylated with 150 μM ATP in the absence (lane 1) or in the presence of 5 nmol of GPΔIII-derived peptide synthesized either using Boc-(lane 2) or Fmoc-(lane 3) chemistry. The reaction mixtures were subjected to SDS-PAGE, transferred to PVDF and autoradiographed to assess autophosphorylation, and subsequently blotted with anti-FLAG monoclonal antibodies (Sigma) to determine the amount of recombinant material present (Western).
In vitro phosphorylation assays-About 200 ng of rGPBP were incubated overnight at 30° C. in 25 mM P-glycerolphosphate (pH 7.0), 0.5 mM EDTA, 0.5 mM EGTA, 8 mM MgCl2, 5 mM MnCl2, 1 mM DTT and 0.132 μM γ-^32P-ATP, in the presence or absence of 0.5-1 μg of protein substrates or 10 nmoles of synthetic peptides, in a total volume of 50 μl.
as §1

In data set [4] the target is T3, GPpep1.
T3 chain: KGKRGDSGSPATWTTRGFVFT

Data set [5] addresses T4, native bovine α3(IV)NC1 domain (bovine GP antigen), Q28084.
T4 chain: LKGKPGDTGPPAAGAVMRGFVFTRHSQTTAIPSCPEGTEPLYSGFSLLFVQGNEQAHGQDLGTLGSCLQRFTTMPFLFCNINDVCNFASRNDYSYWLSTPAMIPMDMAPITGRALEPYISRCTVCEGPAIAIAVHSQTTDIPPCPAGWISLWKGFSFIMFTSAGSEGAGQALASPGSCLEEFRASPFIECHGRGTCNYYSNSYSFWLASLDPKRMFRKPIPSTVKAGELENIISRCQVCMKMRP

In data set [6] the target is T5, prokaryotic human recombinant α3(IV)NC1.
T5 chain: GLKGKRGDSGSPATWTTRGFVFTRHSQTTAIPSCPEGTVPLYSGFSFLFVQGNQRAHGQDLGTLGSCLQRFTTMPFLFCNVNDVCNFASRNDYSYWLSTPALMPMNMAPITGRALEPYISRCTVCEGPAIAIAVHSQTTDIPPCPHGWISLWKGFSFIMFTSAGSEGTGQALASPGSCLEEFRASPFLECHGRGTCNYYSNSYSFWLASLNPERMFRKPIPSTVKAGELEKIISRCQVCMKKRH

Data set [7] concerns the molecule itself. Nature of the data set: gel filtration HPLC and analytical centrifugation. As to the method: FIG. 11. rGPBP and rGPBPΔ26 form very active high molecular weight aggregates. About 300 μg of rGPBP (A) or rGPBPΔ26 (B) were subjected to gel filtration HPLC as described under Material and Methods. Vertical arrowheads and numbers respectively indicate the elution profile and molecular mass (kDa) of the molecular weight standards used. Larger aggregates eluted in the void volume (I), and the bulk of the material present in the samples eluted in the fractionation range of the column as a second peak between the 669 and 158 kDa markers (II). Fifteen microliters of the indicated minute fractions were subjected to SDS-PAGE and Coomasie blue staining. Five microliters of the same fractions were in vitro phosphorylated as described in Materials and Methods, and the reaction stopped by boiling in SDS sample buffer. The fractions were loaded onto SDS-PAGE, transferred to PVDF and autoradiographed for 1 or 2 hours using Kodak X-Omat films and blotted using anti-FLAG monoclonal antibodies (Sigma).
Northern hybridization studies Pre-made human multiple-tissue and tumor cell-line Northern Blots (CLONTECH) were probed with a cDNA containing the 78-bp exon present only in GPBP or with a cDNA representing both isoforms. […] The material was eluted from the column at 0.5 ml/min, monitored at 220 nm and minute fractions collected. […]
In general terms: In gel filtration, larger molecules generally elute earlier.

Turning to “QRAHGQDLDALFVKVLRSP [SEQ ID NO: 43, synthetic peptide representing the C-terminal region of GPΔIII]”, in data set [1], the “induction of GP antigen phosphorylation by PKA (22 kDa conformer of α3(IV)NC1)” value is on record as “induced the phosphorylation of a single polypeptide”.

On to “QRAHGQDLESLFHQL [SEQ ID NO:44, synthetic peptide representing the C-terminal region of GPΔIII/IV/V]”, for which the “induction of GP antigen phosphorylation by PKA (22 kDa conformer of α3(IV)NC1)” value in data set [1] is recorded as “induced the phosphorylation of a single polypeptide”.

For “QRAHGQDLDALFVKVLRSP [Fmoc-based peptide]”, the “in vitro substrate of PKA” value in data set [2] is given as “not”. Also, in data set [3], the “effect on GPBP autophosphorylation” value is “inhibited GPBP autophosphorylation”.

Turning to QRAHGQDLDALFVKVLRSP [Boc-based peptide], in data set [1] (long storage at low temperatures), the “retention of ability to induce PKA on storage” value is listed as “loses its ability to induce PKA”. Moreover, the “in vitro substrate of PKA” value in data set [2] was “in vitro substrates of PKA”. The “effect on GPBP autophosphorylation” value in data set [3] is on record as “positively influenced GPBP autophosphorylation”.

B1: FLAG-tagged recombinant GPBPΔ26 (rGPBPΔ26) (enzyme)
chain: DYKDDDDKMSDNQSWNSSGSEEDPETESGPPVERCGVLSKWTNYIHGWQDRWVVLKNNALSYYKSEDETEYGCRGSICLSKAVITPHDFDECRFDISVNDSVWYLRAQDPDHRQQWIDAIEQHKTESGYGSESSLRRHGSMVSLVSGASGYSATSTSSFKKGHSLREKLAEMETFRDILCRQVDTLQKYFDACADAVSKDELQRDKVVEDDEDDFPTTRSDGDFLHSTNGNKEKLFPHVTPKGINGIDFKGEAITFKATTAGILATLSHCIELMVKREDSWQKRLDKETEKKRRTEEAYKNAMTELKKKSHFGGPDYEEGPNSLINEEEFFDAVEAALDRQDKIEEQSQSEKVRLHWPTSLPSGDAFSSVGTHRFVQKVEEMVQNHMTYSLQDVGGDANWQLVVEEGEMKVYRREVEENGIVLDPLKATHAVKGVTGHEVCNYFWNVDVRNDWETTIENFHVVETLADNAIIIYQTHKRVWPASQRDVLYLSVIRKIPALTENDPETWIVCNFSVDHDSAPLNNRCVRAKINVAMICQTLVSPPEGNQEISRDNILCKITYVANVNPGGWAPASVLRAVAKREYPKFLKRFTSYVQEKTAGKPILF
notes: From plasmid pHIL-FLAG-n4′Δ26, expressed in Pichia pastoris
As for B1, the “trans-phosphorylation activity with 5 nmol GPpep1” value in data set [4] was “the reduced in-solution auto- and trans-phosphorylation activities displayed by rGPBPΔ26”. Besides, the “conformers and oligomers after DTT consumption, Western blot” value in data set [5] is reported as “Essentially the same results were obtained when blotting the samples that contained GPBPΔ26”. For the same molecule, the “disruption of disulfide-based aggregates, Western blot” value in data set [6] is “GPBP and, to a lesser extent GPBPΔ26 disrupted disulfide-based high molecular weight aggregates characteristic of recombinant material representing human α3(IV)NC1 produced in bacteria”. The binding result in data set [7] was “binds”.

B2: FLAG-tagged recombinant GPBP (rGPBP) (enzyme)
chain: DYKDDDDKMSDNQSWNSSGSEEDPETESGPPVERCGVLSKWTNYIHGWQDRWVVLKNNALSYYKSEDETEYGCRGSICLSKAVITPHDFDECRFDISVNDSVWYLRAQDPDHRQQWIDAIEQHKTESGYGSESSLRRHGSMVSLVSGASGYSATSTSSFKKGHSLREKLAEMETFRDILCRQVDTLQKYFDACADAVSKDELQRDKVVEDDEDDFPTTRSDGDFLHSTNGNKEKLFPHVTPKGINGIDFKGEAITFKATTAGILATLSHCIELMVKREDSWQKRLDKETEKKRRTEEAYKNAMTELKKKSHFGGPDYEEGPNSLINEEEFFDAVEAALDRQDKIEEQSQSEKVRLHWPTSLPSGDAFSSVGTHRFVQKPYSRSSSMSSIDLVSASDDVHRFSSQVEEMVQNHMTYSLQDVGGDANWQLVVEEGEMKVYRREVEENGIVLDPLKATHAVKGVTGHEVCNYFWNVDVRNDWETTIENFHVVETLADNAIIIYQTHKRVWPASQRDVLYLSVIRKIPALTENDPETWIVCNFSVDHDSAPLNNRCVRAKINVAMICQTLVSPPEGNQEISRDNILCKITYVANVNPGGWAPASVLRAVAKREYPKFLKRFTSYVQEKTAGKPILF
modifications: phosphoserine, phosphothreonine and phosphotyrosine present, sites not given
notes: Made in Pichia pastoris or 293 cells; also called FLAG-n4′
Turning to B2, the binding result in data set [7] is listed as “binds”.
